According to patent publication US20180147257A1 (Stanford University, published 2018):

Molecular target: T1, PDL1 displayed on yeast cells (UniProt Q9NZQ7 19-238, limits assumed)
T1 construct: Control for the yeast display staining; also called closest CD277 structural homologue
Assay: FACS staining of yeast displaying PDL1 with purified LTβR-IgG1 fusion protein

T1 sequence (Q9NZQ7 19-238 limits assumed): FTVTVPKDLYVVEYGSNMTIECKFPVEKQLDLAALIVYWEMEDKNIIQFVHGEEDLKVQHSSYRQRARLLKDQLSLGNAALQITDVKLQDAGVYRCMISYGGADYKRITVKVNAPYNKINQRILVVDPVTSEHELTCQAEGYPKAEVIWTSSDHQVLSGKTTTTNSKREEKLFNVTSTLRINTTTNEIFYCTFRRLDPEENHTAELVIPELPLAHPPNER

B1: LTβR-IgG1 fusion protein (Fc fusion, UniProt P36941 31-227, looked up)
chain: QAVPPYASENQTCRDQEKEYYEPQHRICCSRCPPGTYVSAKCSRIRDTVCATCAENSYNEHWNYLTICQLCRPCDPVMGLEEIAPCTSKRKTQCRCQPGMFCAAWALECTHCELLSDCPPGTEAELKDEVGKGNNHCVPCKAGHFQNTSSPSARCQPHTRCENQGLVEAAPGTAQSDTTCKNPLEPLPPEMSGTMLM
notes: Purified fusion protein; also called LTBR-IgG1 fusion protein; not shown: IgG1 part of the fusion
B1: no binding.
